Results from doi:10.1101/2021.03.15.435440 (bioRxiv, 2021).

Target: SARS-CoV-2 spike (6P) (SARS-CoV-2, Wuhan-Hu-1 reference, UniProt P0DTC2, stabilised)
Experiment: cryo-EM structure

B1: Ab16 Fab (Fab, V domains shown)
VH: EVQLQQSGPELVKPGASVKISCKASGYSFNNYYMNWVKQSPEKSLEWIGEINPNSGYTSYNQKFRAKATLTVDKSSTTAYMQLKSLTSEDSAVYYCARYFGNLFAMDFWGQGTSVTVS
VL: DILMTQSPSSMSVSLGDTVSITCHASQGIGSNIGWLQQKPGKSFKGLIYLGTNLEDGVPSRFSGSGSGADYSLTISSLESEDFADYYCVQYVQFPYTFGGGTKLEIK
B1: binds.
